Nine molecules from US20230357395A1 (MARENGO THERAPEUTICS, published 2023) can be followed below.

The chains are these.
T1: NKp30 on KHYG-1 NK cells (human, UniProt O14931 19-201)
T1 construct: whole, on cells; also called NK cell line KHYG-1; NKp30+ KHYG-1 cells
T1 sequence (looked up): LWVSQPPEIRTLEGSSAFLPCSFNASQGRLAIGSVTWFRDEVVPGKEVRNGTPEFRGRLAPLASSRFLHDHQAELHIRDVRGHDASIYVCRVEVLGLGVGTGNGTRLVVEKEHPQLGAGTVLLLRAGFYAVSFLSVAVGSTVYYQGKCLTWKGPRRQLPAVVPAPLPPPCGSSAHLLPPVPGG

T2: human NKp30 (construct not named) (human, UniProt O14931 19-135, limits assumed)
T2 construct: also called hNKp30
T2 sequence (looked up): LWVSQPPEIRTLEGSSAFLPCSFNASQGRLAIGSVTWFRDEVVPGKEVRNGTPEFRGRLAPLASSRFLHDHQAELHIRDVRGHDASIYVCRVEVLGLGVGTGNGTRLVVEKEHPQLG

B1: BIM0460 (Example 8; format not stated) (antibody, V domains shown)
VH: QVQLVQSGAEVKKPGSSVKVSCKASGYTFTGYVMHWVRQAPGQGLEWMGFINPYNDDIQSNERFRGRVTITSDKSTTTAYMELSSLRSEDTAVYYCARGAGYNFDGAYRFFDFWGQGTLVTVSS
VL: DVVMTQSPLSLPVTLGQPASISCRSSQRLVHSNGNTYLHWYQQRPGQSPRLLIYRVSNRFPGVPDRFSGSGSGTDFTLKISRVEAEDVGVYFCSQSTHVPYTFGGGTKVEIK
notes: Humanized JOVI.1 variant
B2: BJM0578 (Example 8; format not stated) (antibody, V domains shown)
VH: QVQLVQSGAEVKKPGSSVKVSCKASGYTFTGYVMHWVRQAPGQGLEWMGFIIPIFGTANYAQKFQGRVTITSDKSTTTAYMELSSLRSEDTAVYYCARGAGYNFDGAYRFFDFWGQGTLVTVSS
VL: B1 VL
notes: Germlined variant of BIM0460
B3: BKM0196 (single arm) (antibody, V domains shown)
VH: B2 VH
VL: B1 VL with N33G, N35S
notes: Single arm anti-TRBC1 construct with human Fc; also called N28G N30S
B4: BKM0098 (anti-TRBC2/NKp30 bispecific antibody) (bispecific antibody, human IgG1, kappa, N297A)
heavy: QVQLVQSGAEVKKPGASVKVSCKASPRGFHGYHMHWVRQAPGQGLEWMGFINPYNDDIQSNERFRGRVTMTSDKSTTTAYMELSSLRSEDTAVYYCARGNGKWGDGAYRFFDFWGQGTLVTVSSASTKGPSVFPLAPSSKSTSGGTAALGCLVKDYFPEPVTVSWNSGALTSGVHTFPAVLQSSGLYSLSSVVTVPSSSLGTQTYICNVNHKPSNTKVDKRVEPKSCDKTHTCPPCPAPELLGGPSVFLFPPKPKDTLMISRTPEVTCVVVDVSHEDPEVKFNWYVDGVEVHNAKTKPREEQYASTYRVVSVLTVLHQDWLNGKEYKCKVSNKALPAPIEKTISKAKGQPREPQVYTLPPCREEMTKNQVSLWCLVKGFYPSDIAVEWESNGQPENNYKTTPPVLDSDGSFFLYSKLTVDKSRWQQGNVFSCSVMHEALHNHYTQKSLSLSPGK
light: DVVMTQSPLSLPVTPGEPASISCRSSQNLVHSNGRTYLQWYLQKPGQSPQLLIYRVSNRFPGVPDRFSGSGSGTDFTLKISRVEAEDVGVYFCSQSTHVPYTFGGGTKVEIKRTVAAPSVFIFPPSDEQLKSGTASVVCLLNNFYPREAKVQWKVDNALQSGNSQESVTEQDSKDSTYSLSSTLTLSKADYEKHKVYACEVTHQGLSSPVTKSFNRGEC
scFv: EIQLLESGGGLVQPGGSLRLSCAVSGFSITTTGYHWNWVRQAPGKGLEWVGYIYSSGSTSYNPSLKSRFTISRDTSKNTFYLQMNSLRAEDTAVYYCARGDWHYFDYWGQGTMVTVSSGGGGSGGGGSGGGGSGGGGSDSVTTQSPLSLPVTLGQPASISCSGEKLSDKYVHWYQQRPGQSPRMLIYENDRRPSGVPDRFSGSNSGNDATLKISRVEAEDVGVYFCQFWDSTNSAVFGGGTKVEIKDKTHTCPPCPAPELLGGPSVFLFPPKPKDTLMISRTPEVTCVVVDVSHEDPEVKFNWYVDGVEVHNAKTKPREEQYASTYRVVSVLTVLHQDWLNGKEYKCKVSNKALPAPIEKTISKAKGQPREPQVCTLPPSREEMTKNQVSLSCAVKGFYPSDIAVEWESNGQPENNYKTTPPVLDSDGSFFLVSKLTVDKSRWQQGNVFSCSVMHEALHNHYTQKSLSLSPGK
notes: Anti-TRBC2 Fab-Fc and anti-NKp30 scFv-Fc; also called Anti-TRBC2-NKp30-BKM0098; Parental Bispecific
B5: BKM0312 (anti-TRBC2/NKp30 bispecific antibody) (bispecific antibody)
chain 1: not shown
chain 2: B4 light with P15L, E17Q, Q27K, L42Q, K44R, Q50R, H98R, V99E
chain 3: B4 scFv
B6: BKM0240 (anti-TRBC2/NKp30 bispecific antibody) (bispecific antibody, human IgG1, kappa, N297A)
heavy: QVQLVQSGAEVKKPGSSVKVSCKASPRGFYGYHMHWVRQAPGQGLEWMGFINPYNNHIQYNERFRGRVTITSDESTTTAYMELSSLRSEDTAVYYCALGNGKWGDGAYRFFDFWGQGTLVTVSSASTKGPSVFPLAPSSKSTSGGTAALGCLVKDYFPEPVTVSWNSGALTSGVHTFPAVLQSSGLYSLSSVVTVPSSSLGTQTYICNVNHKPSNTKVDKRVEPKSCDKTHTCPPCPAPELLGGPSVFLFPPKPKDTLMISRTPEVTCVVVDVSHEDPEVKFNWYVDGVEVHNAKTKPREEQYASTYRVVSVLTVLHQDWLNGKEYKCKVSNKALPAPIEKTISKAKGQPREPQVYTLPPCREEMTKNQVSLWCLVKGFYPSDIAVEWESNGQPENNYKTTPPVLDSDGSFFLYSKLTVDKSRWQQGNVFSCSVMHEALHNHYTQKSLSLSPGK
light: B4 light with P15L, E17Q, Q27K, L42Q, K44R, Q50R, H98R, V99E
scFv: B4 scFv
notes: also called Parental Bispecific
B7: BKM0311 (anti-TRBC2/NKp30 bispecific antibody) (bispecific antibody, human IgG1, kappa, N297A)
heavy: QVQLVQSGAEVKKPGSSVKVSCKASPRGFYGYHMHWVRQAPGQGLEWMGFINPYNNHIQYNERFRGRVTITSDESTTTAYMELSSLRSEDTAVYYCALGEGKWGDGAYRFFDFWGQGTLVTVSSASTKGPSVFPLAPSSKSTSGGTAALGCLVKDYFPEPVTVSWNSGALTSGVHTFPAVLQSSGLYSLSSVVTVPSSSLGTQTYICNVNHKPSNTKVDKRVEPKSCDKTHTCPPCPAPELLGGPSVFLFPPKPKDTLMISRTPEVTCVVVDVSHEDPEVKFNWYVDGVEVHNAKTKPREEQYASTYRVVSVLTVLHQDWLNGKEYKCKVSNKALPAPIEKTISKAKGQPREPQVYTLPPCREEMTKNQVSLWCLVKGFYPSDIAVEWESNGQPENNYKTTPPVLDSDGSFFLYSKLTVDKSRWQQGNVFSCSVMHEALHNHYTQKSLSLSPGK
light: B4 light with P15L, E17Q, Q27K, L42Q, K44R, Q50R, H98R, V99E
scFv: B4 scFv
B8: BKM0314 (TRBC2/NKp30 bispecific) (bispecific antibody, human IgG1, kappa, N297A)
heavy: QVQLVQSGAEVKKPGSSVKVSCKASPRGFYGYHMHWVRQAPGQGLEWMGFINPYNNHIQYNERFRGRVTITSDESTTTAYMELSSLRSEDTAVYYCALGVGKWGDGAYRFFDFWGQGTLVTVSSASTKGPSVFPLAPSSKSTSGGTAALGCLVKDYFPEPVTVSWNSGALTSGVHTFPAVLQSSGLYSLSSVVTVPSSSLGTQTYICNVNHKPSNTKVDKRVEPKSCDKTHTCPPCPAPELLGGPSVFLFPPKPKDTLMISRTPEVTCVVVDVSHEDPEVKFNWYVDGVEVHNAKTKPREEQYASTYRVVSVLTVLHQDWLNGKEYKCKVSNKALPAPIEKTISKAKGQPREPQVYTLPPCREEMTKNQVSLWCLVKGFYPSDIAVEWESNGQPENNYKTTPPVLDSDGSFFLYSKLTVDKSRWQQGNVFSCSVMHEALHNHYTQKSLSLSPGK
light: B4 light with P15L, E17Q, Q27K, L42Q, K44R, Q50R, H98R, V99E
scFv: B4 scFv
notes: Knob chain TRBC2 Fab-Fc and hole chain NKp30 scFv-Fc; also called Anti-TRBC2-NKp30-BIS-10
B9: BKM0313 (TRBC2/NKp30 bispecific) (bispecific antibody, human IgG1, kappa, N297A)
heavy: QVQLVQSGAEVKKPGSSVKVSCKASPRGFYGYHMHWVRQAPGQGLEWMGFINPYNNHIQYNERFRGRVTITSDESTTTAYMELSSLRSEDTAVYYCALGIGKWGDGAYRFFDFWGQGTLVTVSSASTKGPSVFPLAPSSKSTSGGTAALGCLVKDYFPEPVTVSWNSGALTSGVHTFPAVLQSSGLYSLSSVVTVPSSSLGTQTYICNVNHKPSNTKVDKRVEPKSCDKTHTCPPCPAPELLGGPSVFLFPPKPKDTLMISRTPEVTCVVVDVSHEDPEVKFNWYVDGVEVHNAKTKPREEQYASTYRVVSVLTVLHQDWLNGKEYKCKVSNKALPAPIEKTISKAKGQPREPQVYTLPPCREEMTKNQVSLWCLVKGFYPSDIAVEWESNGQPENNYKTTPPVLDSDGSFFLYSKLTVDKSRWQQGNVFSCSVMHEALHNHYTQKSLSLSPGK
light: B4 light with P15L, E17Q, Q27K, L42Q, K44R, Q50R, H98R, V99E
scFv: B4 scFv
notes: Knob chain TRBC2 Fab-Fc and hole chain NKp30 scFv-Fc; also called Anti-TRBC2-NKp30-BIS-9

Numbering of substitutions follows the chain as printed. Names may count otherwise.

T6 sequence (A0A5B9 1-129 limits assumed): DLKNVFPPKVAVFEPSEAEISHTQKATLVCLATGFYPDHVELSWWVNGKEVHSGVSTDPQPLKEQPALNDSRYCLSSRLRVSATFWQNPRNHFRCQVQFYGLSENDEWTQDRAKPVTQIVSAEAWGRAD
T3 sequence (P01850 1-129 limits assumed): as the sequence (A0A5B9 1-129 limits assumed) above, with K3N, N4K, K9E, Y36F counted along it
T7 sequence (P01850 1-129 limits assumed): as the sequence (A0A5B9 1-129 limits assumed) above, with K3N, N4K, K9E, Y36F counted along it
T4 sequence (A0A5B9 1-129 limits assumed): as the sequence (A0A5B9 1-129 limits assumed) above

The first assay addresses T3, human TRBC1 (construct not named) (human, UniProt P01850 1-129, limits assumed).
T3 construct: also called hTRBC1
The assay is described as follows: method not stated.
B1 gave a Kd of 17 nM.
With B2, the Kd came to 110 nM.

Another assay concerns the target T4, human TRBC2 (hTRBC2), construct BIM0445 (human, UniProt A0A5B9 1-129, limits assumed).
T4 construct: also called BIM0445 (hTRBC2)
The assay is described as follows: SPR (BIAcore T200), antibody captured via anti-human Fc.
In the case of B3, the binding result was “no binding”.

Another assay concerns the target T1, NKp30 on KHYG-1 NK cells. The assay is described as follows: flow cytometry on NKp30+ KHYG-1 cells, antibody 200 nM to 0.003387 nM. Here is the method: (§1) A flow cytometry-based assay was performed to check binding of anti-TRBC2x NKp30 to either TRBC2+ HPB-ALL cells, TRBC1+ Jurkat cells or NKp30+ KHYG-1 cells.
(§2) Each antibody was diluted to 200 nM and then serially diluted three-fold down to 0.003387 nM. Antibodies were incubated with each cell line for 1 hour at 4C. […] Zombie UV (BioLegend 423107) viability dye was added to the cells 1:1000 and incubated for 30 minutes at room temperature. Cells were analyzed on the CytoFlex LX flow cytometer.
B4 displayed an EC50 of 4 nM.
On the same count and under the same terms, as for B5, the figure is 1.1 nM; as for B6, 1.5 nM.
The molecule B7 registered an EC50 of 0.33 nM.

The target of another assay is T5, TRBC2 on TRBC2+ cell lines (HPB-ALL; HH; HDMAR2) (human, UniProt A0A5B9 1-178).
T5 construct: whole, on cells; also called TRBC2+ HPB-ALL cells
T5 sequence (A0A5B9 whole entry): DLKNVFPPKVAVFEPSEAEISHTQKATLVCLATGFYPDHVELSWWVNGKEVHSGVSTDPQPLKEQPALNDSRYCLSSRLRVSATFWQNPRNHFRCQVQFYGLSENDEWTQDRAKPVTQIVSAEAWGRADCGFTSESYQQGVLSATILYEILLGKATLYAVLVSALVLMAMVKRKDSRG
The assay can be described thus: flow cytometry on TRBC2+ HPB-ALL cells, antibody 200 nM to 0.003387 nM. Here is the method: as §1, §2
B4 displayed an EC50 of 4 nM.
For the molecule B5, the EC50 was determined as 1.1 nM. This EC50 lies about 3.6-fold lower than the previous one.
Same read-out and setting: as for B6, the figure is 1.5 nM; as for B7, 0.33 nM.

The next assay addresses T6, human TRBC2 (construct not named) (human, UniProt A0A5B9 1-129, limits assumed).
T6 construct: also called hTRBC2
The assay is described as follows: SPR, bispecific captured via anti-human Fc on CM5, hTRBC2 from 125 nM in two-fold dilutions, 1:1 fit. The procedure:
(§3) In this example, surface plasmon resonance assay was performed to check binding of anti-TRBC2xNKp30 bispecific antibodies (bispecifics) to either hTRBC2, hTRBC1 or hNKp30 proteins. […] The bispecific antibodies may or may not have an N297A mutation in their Fc regions. FIG. 31B represents a design for monovalent TRBC2 control. Briefly, TRBC2xNKp30 bispecifics at 2 ug/mL were immobilized on CM5 chip via anti-human Fc antibody to 70 RU. Human TRBC2 or human TRBC1 antigens were diluted to 125 nM and then serially diluted two-fold. Association was 300 seconds and dissociation were 600 seconds. This assay was run in 1 x HBS-EP+ Buffer pH 7.4 and 25 C. The data was fit using a 1:1 binding model assess binding of bispecifics to NKp30, human NKp30 at 2 ug/mL was immobilized on CM5 chip via Anti-mouse Fc antibody to 70 RU. TRBC2xNKp30 bispecifics were diluted to 50 nM and then serially diluted two-fold. Association was 300 seconds and dissociation were 600 seconds. This assay was run in 1 x HBS-EP+ Buffer pH 7.4 and 25 C. The data was fit using a 1:1 binding model.
For the molecule B4, the Kd came to 89 nM.
The same measure, in the same setting: as for B5, the figure is 31 nM; as for B6, 28 nM.
On the same count and under the same terms, as for B7, the figure is 9.2 nM; as for B8, 92 nM.
B9 registered a Kd of 148 nM.

Another assay deals with T2, human NKp30 (construct not named). The assay is described as follows: SPR, human NKp30 captured via anti-mouse Fc on CM5, bispecific from 50 nM in two-fold dilutions, 1:1 fit. The procedure: as §3
B4 came in with a Kd of 0.63 nM.
Same read-out and setting: as for B5, the figure is 0.54 nM; as for B6, 0.58 nM.
B7 came in with a Kd of 0.63 nM. The Kd values of the last two molecules are within 1.5-fold of each other.

The next assay concerns the target T7, human TRBC1 (hTRBC1), construct BIM0443 (human, UniProt P01850 1-129, limits assumed).
T7 construct: also called Human TRBC1 (BIM0443); BIM0443 (hTRBC1)
The assay is described as follows: SPR (BIAcore T200), antibody captured via anti-human Fc on CM5, hTRBC1 BIM0443 injected 15.6-500 nM, 1:1 fit. The procedure: In this example, a series of exemplary anti-TRBC1 antibody molecules were analyzed for their binding affinity for TRBC1. Briefly, surface plasmon resonance (SPR) measurements were performed by using the BIAcore T200. Each of the exemplary anti-TRBC1 antibody constructs was immobilized on a CM5 chip via anti-human Fc antibody to a response of 50 RU. […] The data was fit using a 1:1 binding model.
On to B3, for which binding was characterised by a dissociation constant (Kd) of 690 nM.
